Experimental data: article doi:10.1101/2021.11.27.470173
Read-outs that look alike come from different tables or passages of the source.

Tests used:
Assay in all cases: SEC-MALS
[1] = molecular target: cyanide dihydratase CynD from Bacillus safensis PER-URP-08 (Bacillus safensis PER-URP-08) (UniProt P0DXY3)
[2] = molecular target: cyanide dihydratase CynD from Bacillus safensis PER-URP-08 (Bacillus safensis PER-URP-08) (UniProt P0DXY3); remark: listed apart in the source
[3] = molecular target: cyanide dihydratase CynD from Bacillus safensis PER-URP-08 (Bacillus safensis PER-URP-08) (UniProt P0DXY3); remark: listed apart in the source

cyanide dihydratase CynD from Bacillus safensis PER-URP-08 (from UniProt P0DXY3 1-330) (enzyme)
stoichiometry N [1]: 24 to 48 mer
stoichiometry N [2]: 3 to 5 mer
stoichiometry N [3]: 4 to 6 mer
